Measurements as given in patent US20220017620A1 (SHANGHAI FUDAN ZHANGJIANG BIO PHARMACEUTICAL, published 2022).

T1: B7-H3 antigen H4M (human 4Ig B7-H3 amino acids 27-461 with N-terminal 10 His tag and C-terminal Myc tag) (human, UniProt Q5ZPR3 27-461, Biotinylated in the phage ELISA (labeling amount approximately 2.5, sites not stated); not biotinylated in the scFv protein ELISA)
T1 construct: Expressed in Expi293; also called biotinylated B7-H3 antigen H4M; not shown: any linker between the tags and the B7-H3 part is not described
T1 sequence: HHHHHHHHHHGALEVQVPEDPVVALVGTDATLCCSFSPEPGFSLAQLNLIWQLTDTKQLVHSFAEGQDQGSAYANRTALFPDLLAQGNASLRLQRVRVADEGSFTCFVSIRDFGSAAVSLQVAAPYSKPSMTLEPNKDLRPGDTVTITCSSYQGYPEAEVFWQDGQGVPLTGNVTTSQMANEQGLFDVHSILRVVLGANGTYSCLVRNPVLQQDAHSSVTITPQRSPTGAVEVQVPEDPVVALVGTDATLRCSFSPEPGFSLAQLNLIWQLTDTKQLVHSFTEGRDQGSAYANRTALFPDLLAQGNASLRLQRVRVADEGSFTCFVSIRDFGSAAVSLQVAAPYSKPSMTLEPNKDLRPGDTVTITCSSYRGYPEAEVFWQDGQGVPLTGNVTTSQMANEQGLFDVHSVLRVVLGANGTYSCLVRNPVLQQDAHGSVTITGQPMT

T2: IgV domain of B7-H3 (human, UniProt Q5ZPR3 30-130)
T2 sequence: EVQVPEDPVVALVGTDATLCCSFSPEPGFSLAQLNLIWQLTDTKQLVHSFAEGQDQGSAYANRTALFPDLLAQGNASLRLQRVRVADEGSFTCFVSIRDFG


Experiments:
[1] = target: T1, B7-H3 antigen H4M (human 4Ig B7-H3 …); assay: scFv protein ELISA on coated H4M
Method: ELISA screening of scFv protein: B7-H3 antigen H4M was taken and dissolved at room temperature, then diluted with coating buffer to 2 ng/ml, and aliquoted into a hydrophobic enzyme-labeled plate at 100 μL/well, while 100 μL coating buffer only were pipetted into another 3 wells as a blank control, incubated overnight at 2-8° C. 100 μL of scfv protein sample was pipetted into each well, then the plate was placed into the microplate shaker, incubating for 1 hour at 37° C. and 600 rpm. After discarding the liquid, the plate was washed for 3 times with washing buffer. Then diluted enzyme-linked antibody was aliquoted into each well at 100 μL/well, placed into the microplate shaker, incubating at 37° C., 600 rpm for 1 hour. After discarding the liquid, the plate was washed for 3 times. Then TMB chromogenic solution was aliquoted in at 100 μL/well and incubated for 15 minutes, then 1 mol/L H₂SO₄ stop solution was aliquoted at 100 μL/well to stop the reaction. A microplate reader was used to measure the absorbance at 450 nm with a wavelength of 650 nm as the reference wavelength.

[2] = target: T1, B7-H3 antigen H4M (human 4Ig B7-H3 …); assay: phage ELISA, scFv displayed on phage, biotinylated H4M captured on streptavidin
Method: Phage ELISA screening: streptavidin with a concentration of 1 mg/ml was taken and dissolved at room temperature, after being mixed, it was diluted gradually with coating buffer to 5 μg/ml. 100 μL/well of which was then pipetted into each well in a 96-well plate, and 100 μL coating buffer only were pipetted into another 3 wells as a blank control, incubated overnight at 2-8° C. The biotinylated B7-H3 antigen H4M was taken and diluted with 0.5% BSA-PBST diluent to […], then 100 μL of which at a concentration of 20 ng/ml was pipetted into the streptavidin-coated wells, and placed into a microplate shaker. After shaking at 37° C. and 600 rpm for 1 hour, the liquid was discarded, the plate was washed for 3 times with washing buffer and pat dry. The positive phage obtained in the second or third round of panning was taken and dissolved at room temperature, after being mixed, it was diluted 500 times with the diluent. The diluted phage was aliquoted into the microtiter plate at an amount of 100 μL/well, and placed in a microplate shaker, incubating at 37° C. and 600 rpm for 1 hour. After discarding the liquid, the plate was washed for 3 times with washing buffer. Then 100 μL of diluted HRP/Anti-M137 enzyme-linked antibody was aliquoted into each well, placed into the microplate shaker, incubating at 37° C., 600 rpm for 1 hour. After discarding the liquid, the plate was washed for 3 times. Then TMB chromogenic solution was aliquoted in at 100 μL/well and incubated for color development for 15 minutes, then 1 mol/L H₂SO₄ stop solution was aliquoted at 100 μl/well to stop the reaction. A microplate reader was used to measure the absorbance at 450 nm with a wavelength of 650 nm as the reference wavelength.

IgV domain of B7-H3 = target: T2, IgV domain of B7-H3; assay: ELISA on coated antigen, IgG1 antibody
Method: Protein binding: 100 μL of antigen B7-H3 (R&D) at 20 ng/ml was coated onto microplate, incubated at 2-8° C. overnight. Subsequently, 100 μL of the prepared full-length IgG1 antibody described above was added with a total of 8 concentrations started from 2000 ng/ml and serially diluted with 3-fold, incubating at 37° C., 600 rpm for 1 hour. After the plate was washed for three times, Goat anti human IgG (Fc)-HRP enzyme-linked antibody was added and the plate was shook at 37° C. and 600 rpm for 1 hour. After the plate was washed for 4 times, TMB chromogenic solution was aliquoted in and incubated for 10 minutes, then 1 mol/L […] stop solution at 100 μL/well was aliquoted to stop the reaction and the absorbance was measured.

| Binder | ELISA signal value of protein scFv [1] [absorbance 450 nm] | ELISA signal value of Phage scFv [2] [absorbance 450 nm] | ELISA signal value (IgV domain of B7-H3) [elisasignalvalue] |
| --- | --- | --- | --- |
| P2E3 scFv (scFv) scFv: QVQLVQSGAEVKKPGESLKISCKGSGYSFTSYWIGWVRQMPGKGLEWMGIIYPGDSDTRYSPSFQGQVTISADKSISTAYLQWSSLKASDTAMYYCARRSREGFDPWGQGTLVTVSSGSASAPTLGQGGGGGSGGGGSGGGGSQAVLTQPSSASGTPGQRVTMSCSGAASNIGKNFVYWYQQLPGRAPRLLISRNIQRPSEVPDRFSGSKSGTSASLAISGLQSEDEADYYCAAWDDSLNGFVFGTGTAVTVL | 3.58 | 3.54 | – |
| P1G2 scFv (scFv) scFv: QVQLQQSGAEVKKPGSSVKVSCKASGGTFSSYAISWVRQAPGQGLEWMGRIIPILGIANYAQKFQGRVTITADKSTSTAYMELSSLRSEDTAVYYCAVNYYDSSGYYSDYWGQGTLVTVSSGSASAPTLGQGGGGGSGGGGSGGGGSSYELTQPPSASGSPGQSVTISCTGTSSDVGGYNYVSWYQQHPGKAPRLMIYGVSQRPSGVPDRFSGSKSGNTASLTVSGLQAEDEADYYCSSYANNNYVFGTGTKVTVL | 0.54 | 3.55 | – |
| P3B9 scFv (scFv) scFv: QIQLVQSGAEVKKPGESLKISCKGSGYSFTSYWIGWVRQMPGKGLEWMGIIYPGDSDTRYSPSFQGQVTISADKSISTAYLQWSSLKASDTAMYYCARRTPRGMDVWGQGTTVTVSSGSASAPTLGQGGGGGSGGGGSGGGGSQAVLTQPPSASGTPGQRVTISCSGSSSNIGSNYVYWYQQLPGTAPKLLIYRNNQRPSGVPDRFSGSKSGTSASLAISGLRSEDEADYYCAAWDDSLSGWVFGGGTKLTVL | 3.39 | 3.09 | – |
| P2E5 scFv (scFv) scFv: QVTLKESGGGLVQPGGSLRLSCAASGFTFSNSYMTWVRQAPGMGLEWVASMKPDGSVKHYVDSVKGRFTISRDNTKNSLDLQMNSLRAEDTAVYYCSSYDTRWGWFDPWGEGTLVTVSSGSASAPTLGQGGGGGSGGGGSGGGGSQTVVTQEPSFSVSPGGTVTLTCGLNSGSVSTSYFPSWYQQTPGQAPRTLIYNTNTRSSGVPDRFSGSILGNKAALTITGAQADDESDYYCLLYMDSGPHWVFGGGTKLTVL | 0.84 | 0.74 | – |
| P1D1 scFv (scFv) scFv: QVQLVQSGAEVKKPGESLKISCKGSGYSFTSYWIGWVRQMPGKGLEWMGIIYPGDSDTRYSPSFQGQVTISADKSISTAYLQWSSLKASDTAMYYCARRSVAGLDYWGQGTLVTVSSGSASAPTLGQGGGGGSGGGGSGGGGSKTVVTQPPSASGTPGQRVTISCSGSSSNIGSKYVYWYQQLPGTAPRLLIYRNNQRPSGVPDRFSGSKSGTSASLAISGLRSEDESDYYCASWDDRLKGYAFGTGTKVTVL | 2.97 | 3.65 | – |

Continued, values first:

| ELISA signal value of protein scFv [1] [absorbance 450 nm] | ELISA signal value of Phage scFv [2] [absorbance 450 nm] | ELISA signal value (IgV domain of B7-H3) [elisasignalvalue] | Binder |
| --- | --- | --- | --- |
| – | – | 0.6 to 1.5 | P7F10 full-length IgG1 antibody (antibody, V domains shown) VH: QVQLQQSGGGLVQPGGSLRLSCAASGFTFSSYPMSWVRQAPGKGLEWVSVISGSGGSTFYADSVKGRFTISRDNSKNTLYLQVNSLRAEDTAVYYCAKDGRTLSGMDVWGQGTTVTVSS VL: QPVLTQPPSASGTPGQRVTISCSGSSSNIGSNPVNWYQQLPGTAPKLLIYNNNQRPSGVPDRFSGSKSGTSGSLAISGLQSEDEAHYYCAAWDVSLKEVFGGGTKVTVL |
| – | – | 0.3 to 0.5 | P9A12 full-length IgG1 antibody (antibody, V domains shown) VH: QVTLKESGGGLVQPGGSLRLSCAASGFTFSSYAMSWVRQAPGKGLEWVSAISGSGGSTYYADSVKGRFTISRDNSKNTLYLQMNSLRAEDTAVYYCARGAGIDAFDIWGQGTMVTVSS VL: QSALTQPASVSGSPGQSITISCTGTSSDVGAYNYVTWYQQYPGKAPKLMIYDVSERPSGVSNRFSGSKSGNTASLTISGLQAEDEADYYCSSFTSSISWVFGGGTKLTVL |
